Target: T1, HIS-RECQ4 (full length, recombinant) (human, UniProt O94761 1-1208)
T1 construct: RECQ4; full length construct, a gift from Dr Yilun Liu; the construct itself is not described; also called H-R4; source: E. coli Rosetta pLysS, purified (HQ sepharose flow-through, PEI, HiTrap HP with imidazole, FLAG M2 beads)
T1 sequence (looked up): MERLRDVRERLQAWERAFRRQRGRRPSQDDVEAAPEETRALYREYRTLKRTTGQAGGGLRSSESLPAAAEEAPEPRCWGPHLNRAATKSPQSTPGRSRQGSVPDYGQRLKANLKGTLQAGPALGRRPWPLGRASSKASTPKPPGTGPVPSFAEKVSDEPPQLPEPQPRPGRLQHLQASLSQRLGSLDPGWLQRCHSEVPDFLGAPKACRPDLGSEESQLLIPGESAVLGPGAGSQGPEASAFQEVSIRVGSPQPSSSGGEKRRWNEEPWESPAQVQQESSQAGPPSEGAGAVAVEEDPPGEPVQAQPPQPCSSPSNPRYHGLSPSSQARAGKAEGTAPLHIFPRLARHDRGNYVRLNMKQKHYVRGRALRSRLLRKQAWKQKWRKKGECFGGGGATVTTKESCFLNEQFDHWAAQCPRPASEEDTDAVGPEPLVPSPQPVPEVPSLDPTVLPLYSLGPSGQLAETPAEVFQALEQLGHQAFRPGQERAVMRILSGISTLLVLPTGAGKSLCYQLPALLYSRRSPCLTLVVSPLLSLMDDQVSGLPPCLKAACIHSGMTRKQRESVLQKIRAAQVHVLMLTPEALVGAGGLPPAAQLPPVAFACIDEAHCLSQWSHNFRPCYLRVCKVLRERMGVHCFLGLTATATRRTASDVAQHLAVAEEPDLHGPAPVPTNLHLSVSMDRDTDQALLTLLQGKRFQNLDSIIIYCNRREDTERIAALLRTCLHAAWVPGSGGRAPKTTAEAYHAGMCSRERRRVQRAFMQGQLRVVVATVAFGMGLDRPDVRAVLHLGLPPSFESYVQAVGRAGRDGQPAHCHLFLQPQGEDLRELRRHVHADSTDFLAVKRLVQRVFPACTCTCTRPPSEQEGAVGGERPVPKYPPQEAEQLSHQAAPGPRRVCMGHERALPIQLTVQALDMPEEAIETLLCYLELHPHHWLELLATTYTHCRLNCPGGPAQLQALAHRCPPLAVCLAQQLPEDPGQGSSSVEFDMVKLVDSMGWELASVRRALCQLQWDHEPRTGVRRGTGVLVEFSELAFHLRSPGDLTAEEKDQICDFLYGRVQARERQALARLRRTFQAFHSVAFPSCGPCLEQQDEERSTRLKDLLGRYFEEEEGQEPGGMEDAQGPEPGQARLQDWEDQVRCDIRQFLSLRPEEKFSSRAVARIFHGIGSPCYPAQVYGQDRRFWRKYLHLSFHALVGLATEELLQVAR
Test: SPR; BIAcore T100, 25°C; GST-MCM10 amine-coupled to a CM3 chip (500 response units); RECQ4 as analyte at 1, 0.5, 0.25, 0.125, 0.06 and 0.03 μM; flow 30 and 60 μl/min; HBS buffer (10 mM HEPES pH 7.4, 150 mM NaCl, 0.5 mM TCEP, 0.05% Tween20); global fit to a two state model
Details: both partners purified

B1: GST-MCM10 (natural protein, human, UniProt Q7L590 1-875, looked up)
chain: MDEEEDNLSLLTALLEENESALDCNSEENNFLTRENGEPDAFDELFDADGDGESYTEEADDGETGETRDEKENLATLFGDMEDLTDEEEVPASQSTENRVLPAPAPRREKTNEELQEELRNLQEQMKALQEQLKVTTIKQTASPARLQKSPVEKSPRPPLKERRVQRIQESTCFSAELDVPALPRTKRVARTPKASPPDPKSSSSRMTSAPSQPLQTISRNKPSGITRGQIVGTPGSSGETTQPICVEAFSGLRLRRPRVSSTEMNKKMTGRKLIRLSQIKEKMAREKLEEIDWVTFGVILKKVTPQSVNSGKTFSIWKLNDLRDLTQCVSLFLFGEVHKALWKTEQGTVVGILNANPMKPKDGSEEVCLSIDHPQKVLIMGEALDLGTCKAKKKNGEPCTQTVNLRDCEYCQYHVQAQYKKLSAKRADLQSTFSGGRIPKKFARRGTSLKERLCQDGFYYGGVSSASYAASIAAAVAPKKKIQTTLSNLVVKGTNLIIQETRQKLGIPQKSLSCSEEFKELMDLPTCGARNLKQHLAKATASGIMGSPKPAIKSISASALLKQQKQRMLEMRRRKSEEIQKRFLQSSSEVESPAVPSSSRQPPAQPPRTGSEFPRLEGAPATMTPKLGRGVLEGDDVLFYDESPPPRPKLSALAEAKKLAAITKLRAKGQVLTKTNPNSIKKKQKDPQDILEVKERVEKNTMFSSQAEDELEPARKKRREQLAYLESEEFQKILKAKSKHTGILKEAEAEMQERYFEPLVKKEQMEEKMRNIREVKCRVVTCKTCAYTHFKLLETCVSEQHEYHWHDGVKRFFKCPCGNRSISLDRLPNKHCSNCGLYKWERDGMLKEKTGPKIGGETLLPRGEEHAKFLNSLK
notes: MCM10, human; construct pGEX-4T-1-MCM10, a gift from Dr. Yilun Liu; also called G-M10; pGEX-4T-1-MCM10; source: E. coli, purified on GSH beads (kept on the beads for pull-downs; eluted with reduced glutathione for the peptide array)
With B1 the Kd was 170 ± 200 nM.

— publication PMC4747346, “Interaction of RECQ4 and MCM10 is important for efficient DNA replication origin firing in human cells” (Oncotarget, 2015)
